Data published in publication PMC5733030, “Characterizing Isozymes of Chlorite Dismutase for Water Treatment” (Frontiers in Microbiology, 2017).

Experiments:
Experiment in all cases: chloride ion selective electrode, initial rates, Michaelis-Menten fit
Conditions in all cases: 10 mM phosphate buffer pH 7.0, 21–23°C, soluble protein fraction
[1] = substrate: [O-][Cl+]O; assay type: biochemical, Ideonella dechloratans
Description: chloride ion selective electrode, initial rates, Michaelis-Menten fit on rIdCld

[2] = substrate: [O-][Cl+]O; assay type: biochemical, Nitrobacter winogradskyi
Description: chloride ion selective electrode, initial rates, Michaelis-Menten fit on rNwCld

[3] = substrate: [O-][Cl+]O; assay type: biochemical, Nitrospira defluvii
Description: chloride ion selective electrode, initial rates, Michaelis-Menten fit on rNdCld

B1: rIdCld (Ideonella dechloratans) (protein)
chain: AMNTPVDRAKILSAPGVFVAFSTYKIRPDYFKVALAERKGAADEVMAVLEKHKEKVIVDAYLTRGYEAKSDYFLRVHAYDAVAAQAFLVDFRATRFGMYSDVTESLVGITKALNYISKDKSPDLNKGLSGATYAGDAPRFAFMIPVKKNADWWNLTDEQRLKEMETHTLPTLPFLVNVKRKLYHSTGLDDTDFITYFETNDLGAFNNLMLSLAKVPENKYHVRWGNPTVLGTIQPIENLVKTLSMGN
notes: recombinant, plasmid pET3a-Idcld (Dr. Rova) in E. coli BL21 (DE3); soluble protein fraction, not purified
[1]
  Km: 320 ± 160 µM

B2: rNwCld (Nitrobacter winogradskyi Nb-255) (protein)
chain: MTFTVFTGGDSGAWSILSVAPVIGESLMAASHLAIAPSLSLGDTSATTPWQLRGVASHARYVERAEKIALTSVQAGLGRNEATRAALIPIRKSAAWWEMTQDERRAIFEDKSHHIAASLKYLPAIARQLYHCRDIGEPFDFLTWFEYAPEHATMFEDLVGVLRATEEWTYVEREVDIRLARAI
notes: recombinant, plasmid pET21b-Nwcld (Dr. Daims) in E. coli BL21 (DE3); soluble protein fraction, not purified
[2]
  Km: 380 ± 150 µM

B3: rNdCld (Nitrospira defluvii) (protein)
chain: ADREKLLTESGVYGTFATFQMDHDWWDLPGESRVISVAEVKGLVEQWSGKILVESYLLRGLSDHADLMFRVHARTLSDTQQFLSAFMGTRLGRHLTSGGLLHGVSKKPTYVAGFPESMKTELQVNGESGSRPYAIVIPIKKDAEWWALDQEARTALMQEHTQAALPYLKTVKRKLYHSTGLDDVDFITYFETERLEDFHNLVRALQQVKEFRHNRRFGHPTLLGTMSPLDEILEKFAQ
notes: recombinant, plasmid pET21b-Ndcld (Dr. Daims) in E. coli BL21 (DE3); soluble protein fraction, not purified
[3]
  Km: 2500 ± 470 µM
